Test results: patent US20180280504A1, “GLYCAN-INTERACTING COMPOUNDS AND METHODS OF USE” (SIAMAB THERAPEUTICS, INC., priority 2014, published 2018)

Key:
[1] = system: MDA-MD-231 STn− cells; assay: Fluorescence microscopy of ALEXA FLUOR 488-S3F binding and internalization, STn− cells; format: cell-based, human
Method: (§1) To analyze the internalization of antibodies by fluorescence microscopy, the following procedure was carried out. MDA-MD-231 STn− cells and MDA-MD-231 STn+ cells were cultured in Eagles minimum essential medium containing 10% fetal calf serum, 100 μg/ml penicillin, 100 UI/ml streptomycin, 45 μg/ml gentamycin, as well as 1 mg/ml G418 for STn+ cells. Cells were sub-cultured by treatment with Accutase buffer and seeded in microscope chamber slides at 10,000 cells/chamber in the case of STn− cells and 20,000 cells/chamber in the case of STn+ cells. All cells were cultured overnight at 37° C. Cells were subsequently incubated with either 1.5, 5 or 10 μg/ml S3F conjugated with ALEXA FLUOR® 488 dye (Thermo Fisher Scientific, Pittsburgh, Pa.) in complete media at 4° C. for 1 hour. Cells were then washed with ice-cold PBS in order to remove antibodies that were not bound to the cell surface. Complete media was then administered to each chamber and the cells were incubated at 37° C. for either 0, 15, 30 or 60 minutes in order to allow internalization of any surface-bound antibodies.
(§2) Following each time point, cells were washed twice with PBS in order to remove unbound antibodies. […] Cells were visualized the following day by analysis on a Nikon Eclipse Ti fluorescence microscope.

[2] = system: MDA-MD-231 STn+ cells; assay: Fluorescence microscopy of ALEXA FLUOR 488-S3F binding and internalization, STn+ cells; format: cell-based, human
Method: as §1, §2

[3] = system: COLO-205 Human Colon Adenocarcinoma Tumor Xenograft; assay: COLO-205 human colon adenocarcinoma xenograft model, tumor volume; format: in vivo, mouse; conditions: 5 mg/kg i.p. once weekly
Source text: To evaluate antibody drug conjugates (ADCs) as single agents in an COLO-205 Colon AdenocarcinomaTumor Xonograft model, 40 athymic nude female mice age range 6-8 weeks were randomly separated into four separate groups, one vehicle control and three ADC treatments, then maintained individually with food/water ad libitum (see the following Table).
Animals were inoculated in the subcutaneous right flank with 5×10^6 colon adenocarcinoma tumor cells (COLO-205) in matrigel, mean tumor size was 175-225 mm^3 at study initiation. Animals were given either vehicle or one of the antibody drug conjugates (5 mg/kg) by intraperitoneal injection once weekly. Tumor volume and percent body weight change were determined once weekly until study termination. The study was terminated when the tumor in the vehicle control animal reached a mean tumor weight >1500 mm^3. SE refers to “standard error.”

[4] = E3-STn allograft model, average weight of mice; format: in vivo, mouse
Method: Balb/c mice were used as part of the test system. 50 female mice were inoculated with E3-STn cells to cause STn-expressing tumor formation. Mice were maintained under pathogen-free conditions with irradiated feed and autoclaved water.
The average weight of mice in each treatment group was also determined on days 1, 4, 6, 8, 11, 13, 15, 18, 20, 22, 26, 27, 29, 32, 34, 36, 39 and 41 following the first administration of each test article (see the following Table). The percent gain or loss over initial weight values is listed in parentheses.

[5] = 488-S3F conjugate at 1.5, 5, 10 μg/ml, 4° C.

B1: S3F: 3F1 variable domains combined with IgG2a constant domains; heavy chain SEQ ID NO: 63, light chain SEQ ID NO: 64 (antibody)
heavy: QVQLQQSDAELVKPGASVKISCKASGYTFTDHAIHWVKQKPEQGLDWIGYISPGNGDIKYNEKFKDKVTLTADKSSSTACMHLNSLTSEDSAVYFCKRSLLALDYWGQGTTLTVSSAKTTAPSVYPLAPVCGDTTGSSVTLGCLVKGYFPEPVTLTWNSGSLSSGVHTFPAVLQSDLYTLSSSVTVTSSTWPSQSITCNVAHPASSTKVDKKIEPRGPTIKPCPPCKCPAPNLLGGPSVFIFPPKIKDVLMISLSPIVTCVVVDVSEDDPDVQISWFVNNVEVHTAQTQTHREDYNSTLRVVSALPIQHQDWMSGKEFKCKVNNKDLPAPIERTISKPKGSVRAPQVYVLPPPEEEMTKKQVTLTCMVTDFMPEDIYVEWTNNGKTELNYKNTEPVLDSDGSYFMYSKLRVEKKNWVERNSYSCSVVHEGLHNHHTTKSFSRTPGK
light: DIVMTQSHKFMSTSVGDRVSITCKASQDVGTNIAWYQQKPGRSPKVLIYSASTRHTGVPDRFTGSGSGTDFTLTISNVQSEDLTDYFCQQYSSFPLTFGVGTKLELKRADAAPTVSIFPPSSEQLTSGGASVVCFLNNFYPKDINVKWKIDGSERQNGVLNSWTDQDSKDSTYSMSSTLTLTKDEYERHNSYTCEATHKTSTSPIVKSFNRNEC
In the case of B1, the “internalization by STn− cells” value ([1]; 37° C. 15-60 min, acid wash) is reported as “not efficiently internalized by STn− cells”, the “binding to the surface of STn− cells” value [1, 5] is reported as “does not bind the surface of STn− cells” and the “internalization by STn+ cells” value ([2]; 37° C. 15-60 min, acid wash) is reported as “capable of being internalized by STn+ cells”. The “binding to the surface of STn+ cells” value [2, 5] was “binds the surface of STn+ cells”, the “tumor volume course after day 8” value ([3]; athymic nude mice) was “continued to show rapid increase in volume” and the “Tumor Volume” value ([3]; study day 1) was 182.8 mm^3. For the same molecule, the “Tumor Volume” value ([3]; study day 5) was 315.2 mm^3, the “Tumor Volume” value ([3]; study day 8) was 448.8 mm^3 and the “Tumor Volume” value ([3]; study day 10) was 543.1 mm^3. For the same molecule, the “Tumor Volume” value ([3]; study day 15) was 655.3 mm^3, the “Tumor Volume” value ([3]; study day 19) was 850.6 mm^3 and the “Tumor Volume” value ([3]; study day 22) was 938.2 mm^3. For the same molecule, the “Tumor Volume” value ([3]; study day 25) was 1001.4 mm^3.

B2: 7G9: anti-STn mouse monoclonal, IgG2b κ, from mouse #4407; VH SEQ ID NO: 12, VL SEQ ID NO: 9 (antibody, V domains shown)
VH: QVQLKESGPGLVAPSQNLSITCTVSGFSLTSYGVNWVRQPPGKGLEWLGVIWGDGSTNYHSALISRLIISKENSKSQVFLKLNSLQTNDTATYYCTKGFVYWGQGTLVTVSA
VL: QIVLTQSPAIMSASPGEKVTMTCSASSSVSYMHWYQQKSGTSPKRWIFDTSKLASGVPARFSGSGSGTSYSLTISSMEAEDAATYYCQQWSSNLLTFGAGTKLELK
With B2 the “Average Weight” value ([4]; day 1 of study) was 17.1 g, the “Average Weight” value ([4]; day 4 of study) was 17.3 g and the “percent gain or loss over initial weight” value ([4]; day 4 of study) was “(1.7) %”. For the same molecule, the “Average Weight” value ([4]; day 6 of study) was 18.2 g, the “percent gain or loss over initial weight” value ([4]; day 6 of study) was “(6.9) %” and the “Average Weight” value ([4]; day 8 of study) was 18.2 g. For the same molecule, the “percent gain or loss over initial weight” value ([4]; day 8 of study) was “(6.5) %”, the “Average Weight” value ([4]; day 11 of study) was 18.3 g and the “percent gain or loss over initial weight” value ([4]; day 11 of study) was “(7.3) %”. The “Average Weight” value ([4]; day 13 of study) was 18.6 g, the “percent gain or loss over initial weight” value ([4]; day 13 of study) was “(8.9) %” and the “Average Weight” value ([4]; day 15 of study) was 18.7 g. For the same molecule, the “percent gain or loss over initial weight” value ([4]; day 15 of study) was “(9.9) %”, the “Average Weight” value ([4]; day 18 of study) was 18.6 g and the “percent gain or loss over initial weight” value ([4]; day 18 of study) was “(9.0) %”. For the same molecule, the “Average Weight” value ([4]; day 20 of study) was 18.9 g, the “percent gain or loss over initial weight” value ([4]; day 20 of study) was “(10.8) %” and the “Average Weight” value ([4]; day 22 of study) was 18.9 g. The “percent gain or loss over initial weight” value ([4]; day 22 of study) was “(11.1) %”, the “Average Weight” value ([4]; day 26 of study) was 19.0 g and the “percent gain or loss over initial weight” value ([4]; day 26 of study) was “(11.7) %”. For the same molecule, the “Average Weight” value ([4]; day 27 of study) was 19.1 g, the “percent gain or loss over initial weight” value ([4]; day 27 of study) was “(11.9) %” and the “Average Weight” value ([4]; day 29 of study) was 19.4 g. For the same molecule, the “percent gain or loss over initial weight” value ([4]; day 29 of study) was “(14.0) %”, the “Average Weight” value ([4]; day 32 of study) was 19.2 g and the “percent gain or loss over initial weight” value ([4]; day 32 of study) was “(12.6) %”. The “Average Weight” value ([4]; day 34 of study) was 19.5 g, the “percent gain or loss over initial weight” value ([4]; day 34 of study) was “(14.2) %” and the “Average Weight” value ([4]; day 36 of study) was 19.6 g. The “percent gain or loss over initial weight” value ([4]; day 36 of study) was “(14.8) %”, the “Average Weight” value ([4]; day 39 of study) was 20.2 g and the “percent gain or loss over initial weight” value ([4]; day 39 of study) was “(18.7) %”. The “Average Weight” value ([4]; day 41 of study) was 20.3 g, the “percent gain or loss over initial weight” value ([4]; day 41 of study) was “(19.2) %” and the “percent gain in weight as compared to Paclitaxel and vehicle control” value ([4]; over the course of treatment) was “higher percent gain in weight”.
